Results published in patent publication US20150361176A1 (GlaxoSmithKline, published 2015).
“And” between values parts separate entries of the source, which are not always exact repeats. Identical values can stand only once.

Experiments:
[1] = biological target: T1, recombinant human TGF-β RII/Fc chimera protein (human, UniProt P37173 24-159); assay: SPR Biacore T100, human TGFbRII-FC, 1:1 model
T1 construct: range 24-159; Made in HEK-F cells; Biotinylated where it was put on SA chips, otherwise captured by anti-human IgG; also called human TGFbRII/Fc; hRII-Fc; not shown: Fc region of human IgG1
Method: Triplet or doped libraries in separate CDR1, CDR2 and CDR3 pools were subjected to rounds of phage selection as described above against either biotinylated human TGF-β RII/Fc antigen over 4 rounds in concentrations of 10 nM, 1 nM, 100 pM and 20 pM respectively, or two rounds of selection using 20 pM followed by 2 pM antigen. Inserts from phage selections were cloned into the pDOM10 expression vector and supernatants with off rates improved over parent were selected for further study. Domain antibodies were expressed and purified their affinity and bioactivity against human TGF-β RII/Fc antigen tested on the BIACORE™ T100 and in the Cell sensor assay described above (data not shown).
BIACORE™ analysis was carried out using a capture surface on a CM4 chip. Anti-human IgG was used as the capturing agent and coupled to a CM4 biosensor chip by primary amine coupling. The Antigen molecule fused to the human Fc was captured on this immobilised surface to a level from 250 to 300 resonance units and defined concentrations of Domain antibodies diluted in running buffer were passed over this captured surface. An injection of buffer over the captured antigen surface was used for double referencing. […] All runs were carried out at 25° C. using HBS-EP buffer as running buffer. Data were generated using the BIACORE™ T100 and fitted to the 1:1 binding model inherent to the software.

[2] = biological target: T1, recombinant human TGF-β RII/Fc chimera …; assay: SPR Biacore, human TGFbRII-FC, 1:1 model (poor fit, ranking only)
[3] = biological target: T1, recombinant human TGF-β RII/Fc chimera …; assay: SPR Biacore
[4] = biological target: T2, recombinant mouse TGF-β RII/Fc chimera protein (mouse; human, UniProt Q62312-1 24-184); assay: SPR Biacore
T2 construct: Residue limits are printed only for the human receptor; also called mouse TGFbRII-Fc; mRII-Fc; not shown: Fc region; the assays speak of antigen fused to the human Fc
T2 sequence (looked up): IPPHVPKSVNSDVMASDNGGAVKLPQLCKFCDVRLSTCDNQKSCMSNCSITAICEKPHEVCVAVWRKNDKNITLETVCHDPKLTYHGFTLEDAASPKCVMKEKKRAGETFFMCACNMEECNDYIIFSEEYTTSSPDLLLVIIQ

cynomolgus TGF-β RII/Fc = biological target: T3, cynomolgus TGF-β RII/Fc (cynomolgus); assay: SPR Biacore
T3 construct: extracellular domain; also called Cyno TGFBRII; Cyno TGFbRII

[5] = biological target: human TGF-βRII on cells (SBE-bla HEK 293T cells; A549 cells) (human, UniProt P37173 23-567); assay: cell-based or functional assay
[6] = biological target: T4, mouse TGF-βRII on MC3T3-E1 cells (mouse osteoblasts) (mouse, UniProt Q62312 24-567); assay: cell-based or functional assay
T4 sequence (looked up): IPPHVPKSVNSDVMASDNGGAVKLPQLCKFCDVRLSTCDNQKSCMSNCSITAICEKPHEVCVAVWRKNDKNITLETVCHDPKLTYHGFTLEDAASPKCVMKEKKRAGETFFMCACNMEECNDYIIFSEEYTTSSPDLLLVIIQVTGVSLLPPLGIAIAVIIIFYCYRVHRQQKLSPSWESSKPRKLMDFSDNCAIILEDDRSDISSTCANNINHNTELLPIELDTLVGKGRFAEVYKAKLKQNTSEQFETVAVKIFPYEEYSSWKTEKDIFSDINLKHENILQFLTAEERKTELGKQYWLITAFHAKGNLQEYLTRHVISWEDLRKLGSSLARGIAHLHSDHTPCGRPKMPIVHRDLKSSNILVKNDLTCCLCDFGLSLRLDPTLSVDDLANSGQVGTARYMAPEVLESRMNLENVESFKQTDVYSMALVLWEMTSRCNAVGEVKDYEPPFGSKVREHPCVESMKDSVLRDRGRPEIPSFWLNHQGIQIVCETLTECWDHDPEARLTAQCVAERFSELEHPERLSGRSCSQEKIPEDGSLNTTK

T1 sequence (P37173 24-159 limits assumed, stated change not applied): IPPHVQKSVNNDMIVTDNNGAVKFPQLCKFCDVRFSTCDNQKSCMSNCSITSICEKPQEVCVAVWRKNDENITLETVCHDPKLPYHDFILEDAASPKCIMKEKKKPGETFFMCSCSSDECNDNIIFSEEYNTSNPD
Chain of human TGF-βRII on cells (SBE-bla HEK 293T cells; A549 cells) (P37173 23-567): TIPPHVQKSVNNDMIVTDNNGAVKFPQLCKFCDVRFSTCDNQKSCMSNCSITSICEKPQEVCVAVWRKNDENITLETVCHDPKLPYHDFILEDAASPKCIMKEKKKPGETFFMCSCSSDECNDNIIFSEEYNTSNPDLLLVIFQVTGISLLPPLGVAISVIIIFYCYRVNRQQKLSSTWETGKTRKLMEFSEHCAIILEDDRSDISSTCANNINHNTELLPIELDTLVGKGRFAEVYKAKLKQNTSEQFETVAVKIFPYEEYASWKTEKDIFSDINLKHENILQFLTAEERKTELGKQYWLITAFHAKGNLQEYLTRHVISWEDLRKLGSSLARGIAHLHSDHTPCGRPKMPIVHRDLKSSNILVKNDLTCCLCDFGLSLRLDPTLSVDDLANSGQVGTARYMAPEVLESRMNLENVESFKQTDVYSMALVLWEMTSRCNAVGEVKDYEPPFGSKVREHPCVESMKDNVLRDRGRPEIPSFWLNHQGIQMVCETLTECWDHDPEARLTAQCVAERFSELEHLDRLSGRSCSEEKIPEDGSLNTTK

B1: DOM23h-271-7 (VHH)
VHH: EVQLLESGGGLVQPGGSLRLSCAASGFTFTEYRMWWVRQAPGKGLEWVSAIEPIGNRTYYADSVKGRFTISRDNSKNTLYLQMNSLRAEDTAVYYCAKQIPGRKWTANSRFDYWGQGTLVTVSS
notes: human VH dAb; also called 271-7a; 271-7b
In the case of B1, the Kd [1] is reported as 13.8 nM and 18.4 nM, the koff [1] is reported as 0.0419 s⁻¹ and 0.0445 s⁻¹ and the kon [1] is reported as 3.04e+06 M⁻¹ s⁻¹ and 2.42e+06 M⁻¹ s⁻¹. For the same binder, the Kd [2] was 9.49 nM, the koff [2] was 0.051 s⁻¹ and the kon [2] was 5.37e+06 M⁻¹ s⁻¹.

B2: DOM23h-271-39 (VHH)
VHH: EVQLLESGGGLVQPGGSLRLSCAASGFTFTEYRMWWVRQAPGKGLEWVSAIEPIGNRTYYARSVDGRFTISRDNSKNTLYLQMNSLRAEDTAVYYCAKQMPGQKWMAKSRFDYWGQGTLVTVSS
notes: human VH dAb; also called DOM23h-271-22 plus D61R K64D; RD
A Kd [3] of 0.0149 nM, a Kd [4] of 1.78 nM and a Kd (cynomolgus TGF-β RII/Fc) of 0.024 nM were found for B2 in this work. The “Human Cell sensor IC50” value [5] was 1.17 nM and the “Mouse 3T3 Luciferase assay IC50” value [6] was 11100 nM.

B3: DOM23h-271-40 (VHH)
VHH: EVQLLESGGGLVQPGGSLRLSCAASGFTFTEYRMWWVRQAPGKGLEWVSAIEPIGNRTYYARSVFGRFTISRDNSKNTLYLQMNSLRAEDTAVYYCAKQMPGQKWMAKSRFDYWGQGTLVTVSS
notes: human VH dAb; also called DOM23h-271-22 plus D61R K64F; RF
A Kd [3] of 0.00999 nM, a Kd [4] of 0.548 nM and a Kd (cynomolgus TGF-β RII/Fc) of 0.0112 nM were found for B3 in this work. The “Human Cell sensor IC50” value [5] was 0.53 nM and the “Mouse 3T3 Luciferase assay IC50” value [6] was 1200 nM.
